Data as given in US20220396792, “METHOD FOR PRODUCING NUCLEIC ACID MOLECULE, BIOMATERIAL, AND METHOD FOR PRODUCING BIOMATERIAL” (NEC Solution Innovators, Ltd., published 2022).

Experiments:
[1] = molecular target: VEGF receptor (KDR/VEGFR2) (UniProt P35968 P35968:20-764); test: SPR; 5 nM receptor alone, 25 C; receptor binds aptamer-bound VEGF165; conditions: tags: R&D Systems 357-KD-050/CF; chain copies: 2
Description: The aptamers 1 to 5 were used as aptamers, and the VEGF sample and a VEGF receptor sample were used as samples. The VEGF receptor sample was prepared in the same manner as the VEGF sample, except that a VEGF receptor (R&D systems, Cat. No: 357-KD-050/CF) was used instead of the VEGF.
The analysis of binding properties by SPR was carried out in the following manner. First, biotinylated poly(dT) was bound to the sensor chip and each of the poly(dA)-added aptamers was then bound to the chip in the same manner as in Example 1. Subsequently, the 5 nmol/L VEGF sample was injected using an SB1T buffer at a flow rate of 50 μL/min for 240 seconds (first injection), followed by washing performed by flowing the SB1T buffer under the same conditions. Thereafter, the 5 nmol/L VEGF receptor sample was injected using an SB1T buffer at a flow rate of 50 μL/min for 240 seconds (second injection), followed by washing performed by flowing the SB1T buffer under the same conditions. With the time at which the first injection was started being 0 seconds, the signal intensity after the sample injection was measured. The SPR was carried out at 25° C. Also, analysis of binding properties by SPR was carried out in the same manner, except that the first and second injections were performed using the combinations shown in Table 1 below instead of the combination of the VEGF sample and the VEGF receptor sample.
FIGS. 8A to 8E are graphs respectively showing the binding properties of the aptamers 1 to 5 to the samples. […] The horizontal axis indicates the time (sec) elapsed after the start of the first injection, and the vertical axis indicates the signal intensity (RU).

VEGF165 [2] = molecular target: T1, VEGF165 (UniProt P15692-4 P15692-4:27-191); test: SPR; 37 C, no Ca, 1 nM VEGF165; conditions: tags: PeproTech 100-20; chain copies: 2
[3] = molecular target: BSA (bovine serum albumin) (Bos taurus, UniProt P02769 P02769:25-607); test: SPR; signal 0 or less, 5 nM, 25 C; conditions: tags: Sigma A7906
Description: (§1) The analysis of the binding properties was carried out using a ProteOn XPR36 (BioRad) in accordance with its instructions for use.
(§2) First, as a sensor chip designed specifically for the ProteOn, a streptavidin-immobilized chip (trade name: ProteOn NLC Sensor Chip, BioRad) was set in the ProteOn XPR36. 5 μmol/L biotinylated poly(dT) was injected to a flow cell of the sensor chip using ultrapure water (DDW), and the binding was allowed to proceed until the signal intensity (RU: Resonance Unit) was saturated. The biotinylated poly(dT) was prepared by biotinylating the 5′ end of 20-mer deoxythymidine. Then, each of the poly(dA)-added aptamers (200 nmol/L) was injected to the flow cell of the chip using an SB1T buffer at a flow rate of 25 μL/min for 80 seconds, and the binding was allowed to proceed until the signal intensity was saturated. Subsequently, each of the samples (5 nmol/L) was injected using an SB1T buffer at a flow rate of 50 μL/min for 300 seconds, followed by washing performed by flowing the SB1T buffer under the same conditions. With the time at which the injection was started being 0 seconds, the signal intensity after the sample injection was measured. The SPR was carried out at 25° C.
(§3) The horizontal axis indicates the time (sec) elapsed after the start of the sample injection, and the vertical axis indicates the signal intensity (RU).

VEGF121 = VEGF121 (UniProt P15692-9 P15692-9:27-147); test: SPR; signal 0 or less, 5 nM, 25 C; conditions: tags: PeproTech 100-20A; chain copies: 2
Description: as §1, §2, §3

VEGF165 [4] = molecular target: T1, VEGF165; test: SPR; 25 C, SB1T pH 7.4, 1 mM MgCl2, 0.01% Tween 20; conditions: tags: PeproTech 100-20; chain copies: 2
Description: as §2
The pH of the SB1T buffer was 7.4.

Sequence of VEGF121 (P15692 other isoform, or with tags, fused parts or gaps): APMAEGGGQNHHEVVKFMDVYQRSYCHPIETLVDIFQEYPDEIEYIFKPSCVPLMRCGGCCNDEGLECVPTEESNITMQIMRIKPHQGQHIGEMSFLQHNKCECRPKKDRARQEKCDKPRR
Sequence of BSA (bovine serum albumin) (P02769 25-607, one chain of several): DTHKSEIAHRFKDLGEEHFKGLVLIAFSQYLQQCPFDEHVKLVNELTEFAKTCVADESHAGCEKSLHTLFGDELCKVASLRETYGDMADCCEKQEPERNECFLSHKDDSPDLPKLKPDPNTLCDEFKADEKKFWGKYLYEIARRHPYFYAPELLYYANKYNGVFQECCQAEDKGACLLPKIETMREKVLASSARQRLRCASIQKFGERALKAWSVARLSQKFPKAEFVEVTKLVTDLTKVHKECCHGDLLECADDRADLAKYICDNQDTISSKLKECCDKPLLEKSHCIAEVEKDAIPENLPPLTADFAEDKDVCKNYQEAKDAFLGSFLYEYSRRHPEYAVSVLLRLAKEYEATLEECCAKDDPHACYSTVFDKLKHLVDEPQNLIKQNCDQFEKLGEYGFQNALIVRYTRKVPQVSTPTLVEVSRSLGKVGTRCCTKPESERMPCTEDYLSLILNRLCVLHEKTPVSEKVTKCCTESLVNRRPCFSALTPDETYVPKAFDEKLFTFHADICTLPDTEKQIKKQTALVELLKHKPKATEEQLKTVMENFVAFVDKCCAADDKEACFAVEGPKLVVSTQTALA
T1 sequence (P15692 other isoform, or with tags, fused parts or gaps): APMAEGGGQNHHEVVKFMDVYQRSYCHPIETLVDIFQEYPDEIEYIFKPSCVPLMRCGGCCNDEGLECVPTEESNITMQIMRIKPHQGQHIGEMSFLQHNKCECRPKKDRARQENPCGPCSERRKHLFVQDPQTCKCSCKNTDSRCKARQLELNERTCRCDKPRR
Sequence of VEGF receptor (KDR/VEGFR2) (P35968 20-764, one chain of several): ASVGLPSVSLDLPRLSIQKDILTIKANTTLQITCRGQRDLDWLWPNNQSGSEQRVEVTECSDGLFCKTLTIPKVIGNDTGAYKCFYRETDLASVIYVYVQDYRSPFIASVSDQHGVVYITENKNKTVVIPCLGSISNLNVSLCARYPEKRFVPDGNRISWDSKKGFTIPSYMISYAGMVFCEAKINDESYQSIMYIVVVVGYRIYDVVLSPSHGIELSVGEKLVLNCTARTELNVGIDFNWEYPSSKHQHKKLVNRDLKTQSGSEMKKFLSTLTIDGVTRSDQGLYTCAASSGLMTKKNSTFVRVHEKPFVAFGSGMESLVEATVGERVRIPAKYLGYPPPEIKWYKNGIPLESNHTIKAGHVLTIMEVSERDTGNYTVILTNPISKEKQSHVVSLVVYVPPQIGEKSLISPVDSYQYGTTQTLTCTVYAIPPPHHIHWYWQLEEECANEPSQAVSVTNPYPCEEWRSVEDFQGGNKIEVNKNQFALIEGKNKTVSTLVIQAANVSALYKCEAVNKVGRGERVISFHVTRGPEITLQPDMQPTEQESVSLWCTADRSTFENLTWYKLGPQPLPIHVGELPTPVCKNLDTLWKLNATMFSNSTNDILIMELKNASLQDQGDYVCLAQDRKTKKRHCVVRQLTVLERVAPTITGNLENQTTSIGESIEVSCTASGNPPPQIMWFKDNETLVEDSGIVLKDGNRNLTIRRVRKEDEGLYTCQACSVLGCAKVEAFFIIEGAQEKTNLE

B1: Aptamer 3 VEGF746CaP_5s49 with 3' poly(dA)20 (ssDNA)
DNA: CCGTAAACAGTTCTGGTTCCTTAGTTTAAAGTCACGTCTTAGTTTAAGGAAAAAAAAAAAAAAAAAAAA
B1: no binding [1]; binds (VEGF165 [2]); no binding [3]. B1: no binding (VEGF121).

For CTTAGTTTAAAGTCACGTCTTAGTTTAAGGAAAAAAAAAAAAAAAAAAAA (ssDNA) [Aptamer 6 VEGF_L30_1 with 3' poly(dA)20], the Kd (VEGF165 [4]) was under 0.001 nM.

For CTTAGTTTAAAGTCACGTCTTAGTTTAAGAAAAAAAAAAAAAAAAAAAA (ssDNA) [Aptamer 8 VEGF_L29_1 with 3' poly(dA)20], the Kd (VEGF165 [4]) was 0.0993 nM.

TTAGTTTAAAGTCACGTCTTAGTTTAAAAAAAAAAAAAAAAAAAAAA (ssDNA) [Aptamer 11 VEGF_L27_1 with 3' poly(dA)20] showed a Kd (VEGF165 [4]) of 0.0276 nM.

Work on CCTTAGTTTAAAGTCACGTCTTAGTTTAAGAAAAAAAAAAAAAAAAAAAA (ssDNA) [Aptamer 7 VEGF_L30_2 with 3' poly(dA)20] yielded a Kd (VEGF165 [4]) of under 0.001 nM.

B2: Aptamer 1 VEGF746CaP_R8m1 with 3' poly(dA)20 (ssDNA)
DNA: GGATTGCCCGATTCACCGTAAACAGTTCTGGTTCCTTAGTTTAAAGTCACGTCTTAGTTTAAGGCATTCTGGAGCGGCATAACAAAAAAAAAAAAAAAAAAAA
B2: no binding [1]; binds (VEGF165 [2]); no binding [3]. B2: no binding (VEGF121).

TAGTTTAAAGTCACGTCTTAGTTTAAAAAAAAAAAAAAAAAAAAAA (ssDNA) [Aptamer 12 VEGF_L26_1 with 3' poly(dA)20] was tested, and the Kd (VEGF165 [4]) was 0.0545 nM.

B3: Aptamer 4 VEGF746CaP_5s62 with 3' poly(dA)20 (ssDNA)
DNA: TTCACCGTAAACAGTTCTGGTTCCTTAGTTTAAAGTCACGTCTTAGTTTAAGGCATTCTGGAAAAAAAAAAAAAAAAAAAAA
B3: no binding [1]; binds (VEGF165 [2]); no binding [3]. B3: no binding (VEGF121).

B4: Aptamer 2 VEGF746CaP_5s31 with 3' poly(dA)20 (ssDNA)
DNA: CCTTAGTTTAAAGTCACGTCTTAGTTTAAGGAAAAAAAAAAAAAAAAAAAA
B4: no binding [1]; binds (VEGF165 [2]); no binding [3]. B4: no binding (VEGF121).

B5: Aptamer 5 VEGF746CaP_R8m49 with 3' poly(dA)20 (ssDNA)
DNA: GGATTGCCCGATTCACCGTAAACGTTCTTACATTAGTTTAAAGTCACGTCTTAGTTTAATTAAGCATTCTGGAGCGGCATAACAAAAAAAAAAAAAAAAAAAA
B5: no binding [1]; binds (VEGF165 [2]); no binding [3]. B5: no binding (VEGF121).

With CTTAGTTTAAAGTCACGTCTTAGTTTAAAAAAAAAAAAAAAAAAAAAA (ssDNA) [Aptamer 10 VEGF_L28_2 with 3' poly(dA)20] the Kd (VEGF165 [4]) was 4170 nM.

AGTTTAAAGTCACGTCTTAGTTTAAAAAAAAAAAAAAAAAAAA (ssDNA) [Aptamer 15 VEGF_L23_1 with 3' poly(dA)20] was tested, and the Kd (VEGF165 [4]) was 92.7 nM.

In the case of TAGTTTAAAGTCACGTCTTAGTTTAAAAAAAAAAAAAAAAAAAAA (ssDNA) [Aptamer 14 VEGF_L25_1 with 3' poly(dA)20], the Kd (VEGF165 [4]) is reported as 800 nM.

For TTAGTTTAAAGTCACGTCTTAGTTTAAGAAAAAAAAAAAAAAAAAAAA (ssDNA) [Aptamer 9 VEGF_L28_1 with 3' poly(dA)20], the Kd (VEGF165 [4]) was 0.0149 nM.

For TTAGTTTAAAGTCACGTCTTAGTTTAAAAAAAAAAAAAAAAAAAAA (ssDNA) [Aptamer 13 VEGF_L26_2 with 3' poly(dA)20], the Kd (VEGF165 [4]) was 3.49 nM.
